Measured values reported in article PMC12226651.

How the values were obtained:
[1] = target: dynamic microtubules grown from purified bovine brain tubulin (bovine) (UniProt Q6B856); assay: optical trap rupture force assay; kinetochores purified with benzonase, held on beads by anti-penta-His antibody via Dsn1-6His-3M3DK, attached to the tip of dynamic microtubules grown from coverslip-anchored seeds; BRB80 growth buffer, 23 °C; force raised at 0.25 pN/s until detachment
[2] = target: dynamic microtubules grown from purified bovine brain tubulin (bovine) (UniProt Q6B856); assay: optical trap rupture force assay; kinetochores purified without benzonase, held on beads by anti-penta-His antibody via Dsn1-6His-3M3DK, attached to the tip of dynamic microtubules grown from coverslip-anchored seeds; BRB80 growth buffer, 23 °C; force raised at 0.25 pN/s until detachment

| Substance | median rupture force [1] | median rupture force [2] |
| --- | --- | --- |
| K. marxianus kinetochores purified via Dsn1-6His-3M3DK (from UniProt A0ABX6F0Z3 1-547) (complex) | 6.4 pN | 7.5 pN |
| S. cerevisiae kinetochores purified via Dsn1-6His-3M3DK (from UniProt P40568 1-576) (complex) |  | 7.2 pN |
